Laboratory results published in PMC8995355 (Molecular cell, 2022).
Values belong to the molecule of their own block, whether it stands above or below them. Square brackets hold non-standard residues; d marks the D form. Ends that are not written are not given here. pS = N[C@@H](COP(=O)(O)O)C(=O)O

How the values were obtained:
[1] = molecular target: Cy5-53BP1(166-182) pS176/pS178; pS176/pS178 (S) (human) (UniProt Q12888); assay: fluorescence polarisation
RIF1 = RIF1 (UniProt Q5UIP0); assay: biotin-peptide streptavidin pull-down, RIF1 blot
[2] = molecular target: T1, RIF1(1-980), recombinant N-terminal fragment with the HEAT repeat-rich NTD (human, UniProt Q5UIP0 1-980); assay: fluorescence polarisation
T1 sequence (looked up): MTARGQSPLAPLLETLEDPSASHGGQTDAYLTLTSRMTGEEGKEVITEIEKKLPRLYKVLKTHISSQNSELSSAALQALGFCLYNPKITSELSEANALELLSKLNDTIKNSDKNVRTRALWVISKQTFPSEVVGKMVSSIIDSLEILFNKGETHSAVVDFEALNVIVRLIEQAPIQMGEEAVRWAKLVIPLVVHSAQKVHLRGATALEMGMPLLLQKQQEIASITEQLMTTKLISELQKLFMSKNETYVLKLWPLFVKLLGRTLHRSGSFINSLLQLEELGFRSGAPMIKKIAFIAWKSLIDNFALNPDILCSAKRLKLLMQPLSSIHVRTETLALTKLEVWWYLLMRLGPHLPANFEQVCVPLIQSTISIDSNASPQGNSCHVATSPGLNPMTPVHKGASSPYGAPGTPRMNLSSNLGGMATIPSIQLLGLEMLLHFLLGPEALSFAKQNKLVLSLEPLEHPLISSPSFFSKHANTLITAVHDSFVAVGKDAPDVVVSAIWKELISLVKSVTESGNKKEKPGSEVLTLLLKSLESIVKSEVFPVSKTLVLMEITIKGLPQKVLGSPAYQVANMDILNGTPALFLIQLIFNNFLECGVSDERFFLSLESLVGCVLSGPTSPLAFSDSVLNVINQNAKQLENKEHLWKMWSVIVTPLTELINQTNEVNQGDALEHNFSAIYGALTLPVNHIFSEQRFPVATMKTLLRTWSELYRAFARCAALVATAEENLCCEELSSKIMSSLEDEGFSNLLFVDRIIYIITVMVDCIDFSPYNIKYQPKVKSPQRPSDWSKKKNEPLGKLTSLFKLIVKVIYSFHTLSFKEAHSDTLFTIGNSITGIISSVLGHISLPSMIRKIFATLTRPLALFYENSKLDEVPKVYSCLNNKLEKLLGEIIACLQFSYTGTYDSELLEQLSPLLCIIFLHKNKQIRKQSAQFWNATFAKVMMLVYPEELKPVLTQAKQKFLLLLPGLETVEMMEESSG

Molecule: RIF1(1-980), recombinant N-terminal fragment with the HEAT repeat-rich NTD (from UniProt Q5UIP0 1-980) (domain or fragment)
- Kd [1]: 2000 nM

Molecule: Cy5-SQLGFGVLELEQ[pS]QDVE (peptide, UniProt Q12888 166-182, looked up) [Cy5-53BP1(166-182) S176E/pS178; S176E/pS178 (S)]
- binding result [2]: binds

Now from value to molecule:

- binding against the reference (RIF1; reference: unphosphorylated peptide (T696/S698), sites T696,S698): stronger
Molecule: 53BP1 686-702 (from UniProt Q12888) pT696/pS698 peptide

- binding against the reference (RIF1; reference: unphosphorylated peptide (S518/S520), sites S518,S520): stronger
Molecule: 53BP1 511-527 (from UniProt Q12888) pS518/pS520 peptide

- binding result [2]: binds
Molecule: Cy5-SQLGFGVLAL[pS]Q[pS]QDVE (peptide, UniProt Q12888 166-182, looked up) [Cy5-53BP1(166-182) pS176/pS178 E174A; pS176/pS178 (S) E174A]
